Results published in patent publication US6348573B1, “Compositions and methods for identifying apoptosis signaling pathway inhibitors and activators” (The Regents of the University of Michigan, priority 1998, dated 2002).

Tests used:
caspase-1 = target: T1, caspase-1 (Homo sapiens, UniProt P29466); assay: Co-immunoprecipitation of ARC with caspase-1; format: binding; conditions: 293T lysates
T1 construct: expressed in transfected cells; host or cells: human 293T cells
T1 sequence (P29466 120-404): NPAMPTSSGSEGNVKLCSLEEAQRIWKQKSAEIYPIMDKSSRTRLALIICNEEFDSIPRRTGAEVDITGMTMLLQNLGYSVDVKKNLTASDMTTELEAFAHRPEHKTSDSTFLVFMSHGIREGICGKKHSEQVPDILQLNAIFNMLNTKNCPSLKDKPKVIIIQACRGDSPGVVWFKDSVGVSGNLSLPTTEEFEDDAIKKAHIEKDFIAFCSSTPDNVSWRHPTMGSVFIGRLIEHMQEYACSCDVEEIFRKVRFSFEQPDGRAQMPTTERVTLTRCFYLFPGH
Protocol: (§1) Briefly, 2 μg of pcDNA3 or pcDNA3-ARC-Flag or -HA was co-transfected with 3 μg of pcDNA3 or caspase expression plasmids. Total amount of transfected plasmid DNA was always 5 μg. 293T cells were harvested after 22 hr and lysed with 0.2% NP-40 isotonic lysis buffer [Z. N. Oltvai et al., Cell 74:609-619 (1993)]. For immunoprecipitation, […] of soluble protein was incubated with 10 μg/ml of polyclonal anti-Flag, monoclonal anti-AU1 or polyclonal anti-HA antibody for 2 hr at 4° C. and tagged proteins were immunoprecipitated with Protein A-Sepharose 4B (Zymed Laboratories Inc., San Francisco, Calif.). Immunoprecipitates were subjected to 12% SDS-polyacrylamide electrophoresis and immunoblotted with anti-Flag, anti-AU1 or anti-HA antibodies.

[1] = target: T2, C-caspase-8-HA (human caspase-8 amino acids 216-496, C-terminal HA tag) (human, UniProt Q14790-4 216-496); assay: co-immunoprecipitation of caspase-8 deletion mutants from 293T cells, immunoblot
T2 construct: range 216-496; The canonical UniProt entry has 479 residues; also called pcDNA3-C-caspase-8-HA; C-terminal region that contains the catalytic domain of caspase-8; not shown: C-terminal HA tag
T2 sequence (Q14790 199-479 limits assumed): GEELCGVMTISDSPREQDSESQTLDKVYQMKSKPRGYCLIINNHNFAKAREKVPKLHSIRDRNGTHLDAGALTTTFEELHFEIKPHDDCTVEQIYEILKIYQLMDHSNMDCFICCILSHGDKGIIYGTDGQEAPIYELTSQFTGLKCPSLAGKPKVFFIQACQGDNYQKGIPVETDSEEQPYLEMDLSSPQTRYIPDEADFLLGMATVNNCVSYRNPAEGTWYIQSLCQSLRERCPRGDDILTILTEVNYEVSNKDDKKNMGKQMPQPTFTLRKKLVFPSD

caspase-3 = target: T3, caspase-3 (Homo sapiens, UniProt P42574); assay: Co-immunoprecipitation of ARC with caspase-3; format: binding; conditions: 293T lysates
T3 construct: expressed in transfected cells; host or cells: human 293T cells
T3 sequence (P42574 29-277): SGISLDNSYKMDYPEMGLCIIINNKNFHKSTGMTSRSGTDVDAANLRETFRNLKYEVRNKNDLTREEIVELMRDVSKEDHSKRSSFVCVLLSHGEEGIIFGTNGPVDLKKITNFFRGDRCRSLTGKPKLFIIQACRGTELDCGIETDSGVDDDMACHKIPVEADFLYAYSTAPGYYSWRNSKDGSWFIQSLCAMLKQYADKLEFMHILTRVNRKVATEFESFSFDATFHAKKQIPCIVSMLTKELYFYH
Protocol: as §1

caspase-9 = target: T4, caspase-9 (Homo sapiens, UniProt P55211); assay: Co-immunoprecipitation of ARC with caspase-9; format: binding; conditions: 293T lysates
T4 construct: expressed in transfected cells; host or cells: human 293T cells
T4 sequence (P55211 1-416): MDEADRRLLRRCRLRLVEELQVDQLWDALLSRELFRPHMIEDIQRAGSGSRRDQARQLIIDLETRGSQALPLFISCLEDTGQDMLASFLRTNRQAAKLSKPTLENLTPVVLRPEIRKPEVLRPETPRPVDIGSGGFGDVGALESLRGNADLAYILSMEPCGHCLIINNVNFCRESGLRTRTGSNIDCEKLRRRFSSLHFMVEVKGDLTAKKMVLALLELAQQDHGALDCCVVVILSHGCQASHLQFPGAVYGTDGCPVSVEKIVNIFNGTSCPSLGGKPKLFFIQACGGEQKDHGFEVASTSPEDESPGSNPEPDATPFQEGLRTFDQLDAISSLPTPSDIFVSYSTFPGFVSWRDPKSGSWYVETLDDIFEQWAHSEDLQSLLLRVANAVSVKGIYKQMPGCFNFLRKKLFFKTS
Protocol: as §1

CED-3 = target: T5, CED-3 (Caenorhabditis elegans, UniProt P42573); assay: Co-immunoprecipitation of ARC with CED-3; format: binding, C. elegans; conditions: 293T lysates
T5 construct: expressed in transfected cells; host or cells: human 293T cells
T5 sequence (P42573 222-503): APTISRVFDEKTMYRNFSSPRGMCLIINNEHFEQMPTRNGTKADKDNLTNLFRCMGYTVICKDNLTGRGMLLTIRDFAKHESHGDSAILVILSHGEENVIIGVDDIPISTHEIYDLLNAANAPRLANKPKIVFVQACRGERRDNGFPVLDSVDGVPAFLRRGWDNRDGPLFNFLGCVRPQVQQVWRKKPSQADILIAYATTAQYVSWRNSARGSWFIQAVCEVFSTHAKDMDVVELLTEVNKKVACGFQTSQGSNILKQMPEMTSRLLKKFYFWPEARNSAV
Protocol: as §1

caspase-8 [2] = target: T6, caspase-8 (Homo sapiens, UniProt Q14790); assay: Caspase-8 enzymatic assay (DEVD-AMC) on immunoprecipitates of ARC co-transfected cells; format: biochemical; conditions: immunoprecipitated caspase-8 from 293T cells, fluorogenic substrate DEVD-AMC
T6 construct: expressed in transfected cells; host or cells: human 293T cells
Protocol: [293T cell were co-transfected with pcDNA3-caspase-8-AU1 or pcDNA3-caspase-8-mut and pcDNA3-ARC-Flag or pcDNA3]. Caspase-8 in cell extracts was immunoprecipitated with anti-AU1 antibody and immunoprecipitates were incubated with the fluorogenic substrate DEVD-AMC. ◯:pcDNA3 alone; ●:pcDNA3-ARC-HA alone; □:pcDNA3-caspase-8-AU1 alone; ▪:pcDNA3-caspase-8-AU1 and pcDNA3-ARC-HA; ^Δ:pcDNA3-caspase-8-mt-AU1 alone.
β-galactosidase apoptosis assay and Caspase-8 enzymatic assay: 5×10^5 293T cells were transfected with 0.3 μg of pcDNA3-β-gal plus each expression plasmid in triplicate. Cells were fixed 16 hrs after transfection, stained for β-galactosidase and assayed for morphological features of apoptosis [M. Muira et al., Cell 75:653-660 (1993)]. Statistical significance was determined by one-way ANOVA followed by Student-Neuman-Keuls post-doc comparisons. For caspase-8 enzymatic assay, 1.5×10^6 human 293T cells were co-transfected with pcDNA3, pcDNA3-ARC-Flag, pcDNA3-caspase-8 and pcDNA3-caspase-8-mt by a calcium phosphate method. Total amount of transfected plasmid DNA was always 2.5 μg. 293T cells were harvested 18hr after transfection and lysed with 0.2% NP-40 isotonic lysis buffer. Tagged proteins were immunoprecipitated and caspase activity was measured as described [N. Inohara et al., Proc. Natl. Acad. Sci. USA 94:10717-10722 (1997)].

caspase-8 [3] = assay: Co-immunoprecipitation of ARC with caspase-8; format: binding, human; conditions: 293T lysates
Protocol: as §1

caspase-8 [4] = target: T6, caspase-8; assay: Co-immunoprecipitation of ARC with caspase-8; format: binding; conditions: caspase-8 deletion mutant
Protocol: as §1

B1: human ARC (Apoptosis Repressor with CARD domain), C-terminally Flag- or HA-tagged (other)
chain: MGNAQERPSETIDRERKRLVETLQADSGLLLDALLARGVLTGPEYEALDALPDAERRVRRLLLLVQGKGEAACQELLRCAQRTAGAPDPAWDWQHVGPGYRDRSYDPPCPGHWTPEAPGSGTTCPGLPRASDPDEAGGPEGSEAVQSGTPEEPEPELEAEASKEAEPEPEPEPELEPEAEAEPEPELEPEPDPEPEPDFEERDESEDS
notes: Entire open reading frame expressed in 293T cells; The two tagged constructs are merged here; also called ARC-Flag; ARC-HA; not shown: C-terminal FLAG or HA tag
caspase-1
  co-immunoprecipitation with caspase-1: not
[1]
  binding result: no binding
caspase-3
  co-immunoprecipitation with caspase-3: not
caspase-9
  co-immunoprecipitation with caspase-9: not
CED-3
  co-immunoprecipitation with CED-3: co-immunoprecipitated
caspase-8 [2]
  enzymatic activity of caspase-8: inhibited
caspase-8 [3]
  co-immunoprecipitation with caspase-8: co-immunoprecipitated
caspase-8 [4]
  association with the N-terminal death effector domain (DED) of caspase-8: associated
